Source: patent publication US8329186B2, “Treatment of inflammation using BST2 inhibitor” (Isu Abxis Co., Ltd, priority 2004, dated 2012)
d = 2'-deoxy (DNA); r = 2'-OH (RNA)

Experiments:
[1] = system: ICAM1 expression or Bst2 expression; test: RT-PCR of Bst2 and ICAM1 expression in IFNγ-treated HUVEC after siRNA; format: cell-based, human
Protocol: (§1) HUVECs were cultured in 12-well plates with or without transfection of Bst2 siRNA or control siRNA for 6 hr, then treated with or without IFNγ for 24 hr. In some experiments, cells were treated with crude media containing Bst2 decoy or mouse anti-human ICAM1 antibodies. After a wash with PBS (phosphate buffered saline), U937 cells were resuspended in serum free medium at 2×10^6 cells/ml. Assays were initiated by the addition of 200 ul U937 cells to HUVEC for a final volume of 1 ml. After 4 hr at 37° C., unbound U937 cells were removed by washing plates three times with PBS. Bound cells were fixed by the addition of 4% paraformaldehyde in PBS, and the bound cells were counted under microscopy in different fields. All statistical analyses were performed in Excel and statistical significance were evaluated with Student's t test. In some experiments, RNA samples were obtained from HUVECs after treatment with IFNγ and/or siRNAs, and real-time polymerase chain reaction (RT-PCR) analyses were performed.
RT-PCR analyses were performed.

HUVECs and U937 cells = test: Heterotypic aggregation/adhesion between IFN-γ-treated HUVECs and U937 cells; format: cell-based, human
Protocol: HUVECs (1−5×10^4 cells/ml) were seeded onto a 12-well cell culture plate. After one day, the medium was exchanged with a low-serum medium containing 0.5% FBS, and the cells were pretreated with interferon-gamma (IFN-γ; Calbiochem) in a final concentration 10 ng/ml for 24 hrs. Then, the pretreated HUVECs were co-cultured with U937 cells (2×10^6 cells/ml, 500 μl) at 37° C. for 4 hrs. The co-culture was washed with phosphate buffer three or four times, and the remaining cells were fixed with 4% paraformaldehyde and microscopically observed.
HUVECs were transfected with an expression vector for Bst2, treated with or without IFN-γ and then transfected with Bst2 siRNA. These cells were assessed for U937 cell adhesion.
as §1

[2] = In vivo stability of PEG-conjugated Bst2 decoy in rats (ELISA of blood samples); set-up: species or system rat; settings: tail vein, 0.4 to 2 mg/kg, compared to Bst2 decoy
Protocol: The PEG-conjugated forms of Bst2 decoy, prepared in Example 11-1, were injected into the tail vein of 7 week-old male Sprague-Dawley rats in a dose of 0.4 to 2 mg/kg. A negative control group was injected with an equal dose of physiological saline. Also, an equal dose of Bst2 decoy protein was used as a positive control. Blood samples were collected before drug administration, and 2 min, 5 min, 10 min, 30 min, 1 hr, 2 hrs, 6 hrs, 12 hrs and 24 hrs after drug administration from the jugular vein using a cannula. The collected blood samples were analyzed by ELISA. A 96-well plate was coated with an anti-Bst2 decoy antibody (100 ng/ml in PBS) at 4° C. for 8 hrs or longer, and was blocked with albumin in PBS at 37° C. for 2 hrs. The plate was reacted with a proper dilution of rat serum or Bst2 decoy (standard sample) at 37° C. for 2 hrs. The plate was then reacted with a monoclonal antibody (mAb conjugated with horseradish peroxidase, Roche Inc.) recognizing the histidine tag added to the C-terminus of Bst2 decoy at 37° C. for 2 hrs. After being well washed, the plate was treated with a substance of peroxidase, and absorbance was measured at 450 nm. Quantitation of the PEG-conjugated Bst2 decoys present in blood was performed using the standard samples (FIG. 18). […]

mouse model of asthma = test: Ovalbumin-induced mouse model of asthma: infiltrating cells in bronchoalveolar lavage; format: in vivo; settings: ovalbumin-sensitized mice
Protocol: (§2) A mouse model of asthma was prepared by sensitizing mice (C57B6, 8 weeks) with ovalbumin. In detail, mice were initially sensitized for five continuous days by intranasal injection of ovalbumin. After three weeks, mice were intranasally sensitized again with ovalbumin for five continuous days. One week after the secondary sensitization, mice were challenged intranasally with ovalbumin three times every 24 hrs to induce asthma. Herein, a Bst2 decoy was intravenously injected into mice 30 min before sensitization with ovalbumin, and was injected into mice 30 min before the first sensitization and the last injection of ovalbumin. Three days after the last injection, serum samples, lung tissues, and the like were collected from mice.
A mouse model of asthma was prepared as described in Example 8-1.
The effect of Bst2 decoy-Fc fusions on immune cell infiltration was assessed as described in Example 8-2. When ovalbumin-sensitized mice were treated with a Bst2 decoy, the total number of infiltrating cells was decreased and, especially, the number of neutrophils, eosinophils and lymphocytes except for macrophage was decreased in bronchoalveolar lavage (BAL) (FIG. 27).
A mouse model of asthma was prepared as described in Example 8-1. The effect of anti-Bst2/Damp1 antibodies on immune cell infiltration was assessed as described in Example 8-2. […]

IL-4, IL-5 and IL-13 = test: Ovalbumin-induced mouse model of asthma: cytokines in lung tissue (immunoblot); format: in vivo; settings: ovalbumin-sensitized asthmatic mice
Protocol: as §2
When a Bst2 or Damp1 decoy was injected into a mouse model of asthma which was induced by sensitization and challenge with ovalbumin, expression levels of cytokines (interleukin-4 (IL-4), interleukin-5 (IL-5) and interleukin-13 (IL-13)) were measured as follows. […] The bound primary antibodies were detected with a HRP-conjugated secondary antibody (anti-rabbit HRP-conjugated IgG) using ECL reagent.
Expression of 11-4, IL-5 and IL-13 was measured in the murine asthma model as described in Example 8-3 after injection with Bst2 decoy or Bst2 decoy Fc fusion proteins.

U937 cells = test: Competitive inhibition of U937 cell binding to Bst2 decoy coated plates; set-up: species or system human; settings: cells pre-incubated with fusion proteins 2 hrs
Protocol: Competitive inhibition of Fc fusion proteins in the binding between BST2 decoy and cells was measured as follows. Flat-bottomed 96-well plates were coated with Bst2 decoy (50 ug/ml) with sodium bicarbonate (100 mM, pH 9.5) for 2 hrs at 37° C. The plates were washed with PBS (pH 7.4) and incubated with 1% bovine serum albumin (BSA) at 25° C. After a rinse with PBS (pH 7.4) containing 1 mM CaCl2 and 0.5 mM MgCl2, U937 cells (1×10^6/ml) were added to each Bst2-coated well. Before the addition, cells were pre-incubated with BST2 decoy-Fc fusion proteins for 2 hrs at 37° C. Bound cells were counted as described in Example 20.

Molecule: Bst2 siRNA: siRNA against Bst2 mRNA target sequence SEQ ID NO:5; sense SEQ ID NO:6, antisense SEQ ID NO:7 (sense UUGUCCGCGAUUCUCACGCTT; antisense GCGUGAGAAUCGCGGACAATT; sugars from the 5' end r19 d2, backbone not given here)
- ICAM1 expression [1]: does not affect
- U937 cell adhesion to HUVECs (HUVECs and U937 cells; HUVECs transfected with Bst2 expression vector, with or without IFN-γ): decreased U937 cell adhesion
- cell adhesion between untransfected HUVEC and U937 cells (HUVECs and U937 cells; untransfected HUVEC, IFNγ stimulation): inhibitory effect

B1: PEG-conjugated Bst2 decoy: aldehyde PEG-conjugated human Bst2 decoy sample (conjugate, UniProt Q10589 49-161, looked up)
extracellular domain: NSEACRDGLRAVMECRNVTHLLQQELTEAQKGFQDVEAQAATCNHTVMALMASLDAEKAQGQKKVEELEGEITTLNHKLQDASAEVERLRRENQVLSVRIADKKYYPSSQDSS
modifications: extracellular domain aldehyde PEG conjugate
notes: aldehyde PEG-conjugated human Bst2 decoy sample
- metabolic degradation (in vivo stability) [2]: improved metabolic degradation

B2: mouse Damp1 decoy: soluble Damp1 protein fragment having the amino acid sequence of SEQ ID NO:2 (protein, listed as Mus musculus)
chain: FAVTANSVACRDGLRAQAECRNTTHLLQRQLTRTQDSLLQAETQANSCNLTVVTLQESLEKKVSQALEQQARIKELENEVTKLNQELENLRIQKETSSTVQVNS
- cell-cell interaction between human endothelial cells and human monocytic U937 cells (HUVECs and U937 cells): inhibits cell-cell interaction

B3: 2-15: anti-Bst2/Damp1 monoclonal antibody; heavy chain variable SEQ ID NO:77, kappa SEQ ID NO:88 (antibody, V domains shown)
VH: MAQSVKESEGRLVTPGTPLTLTCTVSGFSLSNSGMSWVRQAPGKGLEWIGLINSYGTTYYASWAKGRFTISKTSTTVELKITSPTTEDTATYFCARGAGSSYGLWGQGTLVTVSSAS
VL: QAAELVMTQTPSSTSTAVGDTVTIKCQASQSIGSNLAWYQQKPGQPPKILIYSASNLASGVPSRFKGSGSGTEYTLTISGVQREDAATYYCLGSDSSWDTVFGGGTELEILRTV
modifications: 2-15 heavy chain variable region amino acid sequence; 2-15 kappa chain variable region amino acid sequence
- number of infiltrating cells in bronchoalveolar lavage (total, neutrophils, eosinophils, lymphocytes) (mouse model of asthma): did not block immune cell infiltration significantly

B4: Bst2 decoy-IgG Fc fusion proteins: recombinant chimeric fusion proteins of the extracellular domain of human Bst2 and the Fc region of human IgG (protein)
chain: NSEACRDGLRAVMECRNVTHLLQQELTEAQKGFQDVEAQAATCNHTVMALMASLDAEKAQGQKKVEELEGEITTLNHKLQDASAEVERLRRENQVLSVRIADKKYYPSSQD
modifications: left off: a dimerising Fc or GST
- cytokine levels (IL-4, IL-5, IL-13) in lung tissue (IL-4, IL-5 and IL-13): decreased
- inhibition of U937 cell binding to Bst2 decoy coated cell culture plates (U937 cells): concentration-dependent inhibition
